Data as given in US20170216434A1 (WAYNE STATE UNIVERSITY, published 2017).

What was measured:
[1] = biological target: Very late antigen-4 (VLA-4), alpha4beta1 integrin, on the surface of human reticulocytes and mononuclear leukocytes (human) (UniProt P13612); experiment: flow cytometry saturation binding on isolated RBCs (reticulocytes) from 5 SCD donors, one-site binding analysis
[2] = biological target: Very late antigen-4 (VLA-4), alpha4beta1 integrin, on the surface of human reticulocytes and mononuclear leukocytes (human) (UniProt P13612); experiment: flow cytometry saturation binding on isolated RBCs, individual SCD donors
[3] = biological target: Very late antigen-4 (VLA-4), alpha4beta1 integrin, on the surface of human reticulocytes and mononuclear leukocytes (human) (UniProt P13612); experiment: cell-based or functional assay
[4] = biological target: Very late antigen-4 (VLA-4), alpha4beta1 integrin, on the surface of human reticulocytes and mononuclear leukocytes (human) (UniProt P13612); experiment: flow cytometry saturation binding on isolated RBCs from 5 SCD donors
[5] = biological target: T1, Very late antigen-4 (VLA-4), alpha4beta1 integrin, on the surface of human reticulocytes and mononuclear … (human, UniProt P13612 34-1032; P05556 21-798); experiment: cell-based or functional assay
[6] = biological target: T1, Very late antigen-4 (VLA-4), …; experiment: flow cytometry saturation binding on isolated RBCs (reticulocytes) from 5 SCD donors, one-site binding analysis
Procedure: Flow cytometry was carried out using the BD FACS Canto II and data analysis was performed with the FACS Diva software. Data for leukocytes was acquired by gating based on forward and side scatter properties and CD45 staining of mononuclear cells. Natalizumab and IgG4 staining of the CD45 positive mononuclear cells were then determined. For erythrocytes, cells were gated for CD235a positive staining and examined for thiazole orange stained reticulocytes. Reticulocyte staining for VLA-4 with either natalizumab or an anti CD29 antibody was then determined and compared to IgG4 or isotype matched control antibody.
Fab arm exchange with endogenous IgG4 in humans, resulting in the production of antibodies that are potentially bispecific (Labrijn AF et al. Nat Biotechnol. 27(8):767-71 2009). This phenomenon has been reported for natalizumab as well, leading to the formation of a monovalent form of the antibody, with only one Fab arm specific for the α-subunit of VLA-4 (Rispens T et al. Anal Biochem. 411(2):271-6 2011; Shapiro RI et al. J Pharm Biomed Anal. 55(1):168-75 2011). To assess the impact of half-antibody exchange of natalizumab on saturation and adhesion of sickle cells, a synthetic monovalent form of natalizumab was used where 1 Fab arm was specific for VLA-4 and the other for CD4. […]

| Binder | EC50 [1] [µg/mL] | fold change of EC50 against the divalent form [2] [fold] | IC50 for inhibition of adhesion of reticulocytes in isolated RBC to VCAM-1 [3] [µg/mL] | fold change of adhesion-inhibition IC50 against the divalent form [3] [fold] | potency in blocking reticulocyte adhesion to VCAM-1 against divalent natalizumab (from IC50) [3] [fold] | fold change of EC50 against the divalent form [4] [fold] | IC50 for blocking adhesion of whole blood leukocytes to VCAM-1 under flow, adult SCD blood [5] [µg/mL] | IC50 for blocking adhesion of whole blood reticulocytes to VCAM-1 under flow, adult SCD blood [5] [µg/mL] | IC50 for inhibition of adhesion of reticulocytes in isolated RBC to VCAM-1 [5] [µg/mL] | EC50 [6] [µg/mL] |
| --- | --- | --- | --- | --- | --- | --- | --- | --- | --- | --- |
| synthetic monovalent form of natalizumab where 1 Fab arm was specific for VLA-4 and the other for CD4 (bispecific antibody, part only; not given: anti-CD4 arm and constant regions, V domains shown, not shown: another chain or arm of the molecule; a dimerising Fc or GST) VH: QVQLVQSGAEVKKPGASVKVSCKASGFNIKDTYIHWVRQAPGQRLEWMGRIDPANGYTKYDPKFQGRVTITADTSASTAYMELSSLRSEDTAVYYCAREGYYGNYGVYAMDYWGQGTLVTVSS VL: DIQMTQSPSSLSASVGDRVTITCKTSQDINKYMAWYQQTPGKAPRLLIHYTSALQPGIPSRFSGSGSGRDYTFTISSLQPEDIATYYCLQYDNLWTFGQGTKVEIK | 0.89 | 1.7 to 12 | 0.37 | 19 | 10 | 7 |  |  |  |  |
| Natalizumab (antibody, V domains shown, also called divalent natalizumab; divalent form) VH: QVQLVQSGAEVKKPGASVKVSCKASGFNIKDTYIHWVRQAPGQRLEWMGRIDPANGYTKYDPKFQGRVTITADTSASTAYMELSSLRSEDTAVYYCAREGYYGNYGVYAMDYWGQGTLVTVSS VL: DIQMTQSPSSLSASVGDRVTITCKTSQDINKYMAWYQQTPGKAPRLLIHYTSALQPGIPSRFSGSGSGRDYTFTISSLQPEDIATYYCLQYDNLWTFGQGTKVEIK |  |  |  |  |  |  | 0.05 | 0.02 | 0.02 | 0.14 |
